Test results from patent WO2012092539A2 (dated 2012).

Target: DLL4 protein (R&D Systems) (Homo sapiens (Human), UniProt Q9NR61 27-524)
Test: cell-based or functional assay

Chain of DLL4 protein (R&D Systems) (Q9NR61 27-524 limits assumed): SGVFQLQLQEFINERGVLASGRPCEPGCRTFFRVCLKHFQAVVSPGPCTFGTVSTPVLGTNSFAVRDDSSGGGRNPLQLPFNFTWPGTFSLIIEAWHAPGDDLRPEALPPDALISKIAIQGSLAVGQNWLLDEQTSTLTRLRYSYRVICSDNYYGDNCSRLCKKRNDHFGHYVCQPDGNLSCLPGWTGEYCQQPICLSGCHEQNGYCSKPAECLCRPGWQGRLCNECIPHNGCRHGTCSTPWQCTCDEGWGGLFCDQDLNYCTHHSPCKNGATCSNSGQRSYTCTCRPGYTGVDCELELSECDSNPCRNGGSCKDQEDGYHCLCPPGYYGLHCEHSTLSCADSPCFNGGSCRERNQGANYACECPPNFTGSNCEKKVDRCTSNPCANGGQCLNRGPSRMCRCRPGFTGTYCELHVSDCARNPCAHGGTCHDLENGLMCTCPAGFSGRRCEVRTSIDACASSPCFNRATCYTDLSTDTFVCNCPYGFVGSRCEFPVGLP

Binder	EC50, HUVEC proliferation on DLL4-coated wells (CellTiter Glo, day 3) [nM]	EC50, HES1 luciferase reporter in HELA cells on DLL4-coated wells [nM]
12.3 1C1 (antibody, V domains shown) VH: DVQLQESGPDLVKPSQSLSLTCTVTDHSITSGYSWHWIRQFPGNKLEWMAYIHYSGYTHYNPSLKSRISITRDTSKNQFFLHLNSVTTEDSATFYCAGSDYSANEGAMAYWGQGTSATVSS VL: DIVLTQSPASLAVSLGQRATISCRASESVDSFGNSFMHWYQQKAGQPPKLLIYRTSNLQSGIPARFSGSGSRTDFTLTINPVEADDVATYYCQQSNEDPWTFGGGTKLEIKR	3.9	–
BA1 (antibody, V domains shown) VH: QVQLVQSGAEVKKPGASVKISCKASGYSFTAYYIHWVKQAPGQGLEWIGYISSYNGATNYNQKFKGRVTFTTDTSTSTAYMELRSLRSDDTAVYYCARDYDYDVGMDYWGQGTLVTVSS VL: DIVMTQSPDSLAVSLGERATISCRASESVDNYGISFMKWFQQKPGQPPKLLIYAASNQGSGVPDRFSGSGSGTDFTLTISSLQAEDVAVYYCQQSKEVPWTFGGGTKVEIKR	60	–
12.55 (antibody, human IgG2, V domains shown) VH: EVQLVETGGGLVQPGGSLRLSCAASGFTFSDYAMSWVRQTPGKGLEWVSTISGSGGDTFYADSVKGRFTISRDNSKNTLYLQVNSLRAEDTAVYYCAKDKNRGAYADAFDIWGQGTMVTVSS VL: QAVLTQPASLSASPGASASLTCTLRSDINVATYRIYWYKQKPGSPPQYLLTYKSDSDKQQGSGVPSRFSGSKDSSANAGILLISGLQSDDEADYHCMVWHKSAPIFGGGTKVTVLG	–	21.9
BA2 (antibody, V domains shown) VH: EVQLVESGGGLVQPGGSLRLSCAASGFTFTDNWISWVRQAPGKGLEWVGYISPNSGFTYYADSVKGRFTISADTSKNTAYLQMNSLRAEDTAVYYCARDNFGGYFDYWGQGTLVTVSS VL: DIQMTQSPSSLSASVGDRVTITCRASQDVSTAVAWYQQKPGKAPKLLIYSASFLYSGVPSRFSGSGSGTDFTLTISSLQPEDFATYYCQQSYTGTVTFGQGTKVEIKR	45	–
